Assay results as given in patent publication US20060264369, “Aptamers to von Willebrand Factor and their use as thrombotic disease therapeutics” (published 2006).

Columns and labels:
[1] = target: von Willebrand factor A1 domain (human) (Homo sapiens, UniProt P04275 SEQ:13-246); experiment: filter; 100 nM protein
Protocol: All unique clones were assayed in a 3-point dot blot screen (no protein target control, 100 nM human vWF A1 domain (SEQ ID NO 5), or 100 nM rabbit vWF A1 domain (SEQ ID NO 6). The data are presented in the third and fourth columns of Table 14 below as the ratio of the fraction of the aptamer bound to the nitrocellulose in the presence of the target protein to the fraction of aptamer bound in the absence of the target protein.

[2] = target: von Willebrand factor A1 domain (Homo sapiens, UniProt P04275 SEQ:13-246); experiment: filter; DPBS, 0.1 mg/mL BSA, RT; settings: label: 5'-32P
Protocol: Based on this initial screen, KD's were determined for 16 of the best vWF dependent binding sequences using the dot blot assay. […] A 6 point protein titration of human vWF A1 domain (SEQ ID NO 5) was used in the dot blot assay (333 nM, 100 nM, 33 nM, 10 nM, 3 nM, 0 nM) in 1× DPBS plus 0.1 mg/mL BSA at room temperature for 30 minutes. KD values were calculated by fitting the equation y=(max/(1+K/protein))+yint using KaleidaGraph (KaleidaGraph v. 3.51, Synergy Software).

[3] = target: von Willebrand factor full length (Homo sapiens, UniProt P04275 SEQ:764-2813); experiment: filter; settings: tags: Calbiochem 681300
Protocol: For KD determination, chemically synthesized aptamers were purified using denaturing polyacrylamide gel electrophoresis, 5′end labeled with γ-³²P ATP and were tested for direct binding to full length human vWF (Calbiochem Cat.# 681300, La Jolla, Calif.). An 8 point protein titration was used in the dot blot binding assay (100 nM, 30 nM, 10 nM, 3 nM, 1 nM, 300 pM, 100 pM, 0 pM)) in 1× Dulbecco's PBS containing […] (final volume of 50 uL) for 30 minutes at room temperature. KD values were calculated by fitting the equation y=(max/(1+K/protein))+yint using KaleidaGraph (KaleidaGraph v. 3.51, Synergy Software).

B1: AMX199.F11 (ssDNA)
DNA: CTACCTACGATCTGACTAGCGAAACACTAGGTTGGTTAGGATTGGTGTGTTTCTGCTCTGCTTACTCTCATGTAGTTCC
- binding signal [1]: 1.44 ratio to no protein

B2: AMX203.D6 (mixed)
DNA: GGAGCGCACTCAGCCACAGTTCTGTCGGTGATGAATTAGCGCGAGAGCTGTGGGACGTTTCGACCTCTCTGCTAGC
modifications: 2'-OH purines, deoxy pyrimidines
- Kd [2]: 523 nM

B3: AMX203.A1 (mixed)
DNA: GGAGCGCACTCAGCCACAGTTCTGTCGGTGATGAATTAGCGCGGGAGCTGTGGGACGTTTCGACCTCTCTGCTAGC
modifications: 2'-OH purines, deoxy pyrimidines
- Kd [2]: 1150 nM

B4: ARC1362 (mixed)
mixed: GCGUGCAGUGCCUUCGGCCGTGCGGTGCCUCCGUCACGC
modifications: 2'-OMe at 1-4,8-18,20,22,27,28,30,33,34,36-39, rest deoxy; PS between 4 and 5; 3'-idT
- Kd [3]: 9.9 nM

B5: ARC1370 (mixed)
mixed: GCGUGCAGUGCCUUCGGCCGTGCGGTGCCUCCGUCACGC
modifications: 2'-OMe at 1-4,8-18,20,22,27,28,30,33,34,36-39, rest deoxy; PS between 22 and 23; 3'-idT
- Kd [3]: 10.1 nM

B6: ARC1375 (mixed)
mixed: GCGUGCAGUGCCUUCGGCCGTGCGGTGCCUCCGUCACGC
modifications: 2'-OMe at 1-4,8-18,20,22,27,28,30,33,34,36-39, rest deoxy; PS between 28 and 29; 3'-idT
- Kd [3]: 8.8 nM

B7: ARC1365 (mixed)
mixed: GCGUGCAGUGCCUUCGGCCGTGCGGTGCCUCCGUCACGC
modifications: 2'-OMe at 1-4,8-18,20,22,27,28,30,33,34,36-39, rest deoxy; PS between 7 and 8; 3'-idT
- Kd [3]: 10.8 nM

B8: ARC1374 (mixed)
mixed: GCGUGCAGUGCCUUCGGCCGTGCGGTGCCUCCGUCACGC
modifications: 2'-OMe at 1-4,8-18,20,22,27,28,30,33,34,36-39, rest deoxy; PS between 26 and 27; 3'-idT
- Kd [3]: 9.5 nM

B9: ARC1378 (mixed)
mixed: GCGUGCAGUGCCUUCGGCCGTGCGGTGCCUCCGUCACGC
modifications: 2'-OMe at 1-4,8-18,20,22,27,28,30,33,34,36-39, rest deoxy; PS between 31 and 32; 3'-idT
- Kd [3]: 9.1 nM

B10: ARC1381 (mixed)
mixed: GCGUGCAGUGCCUUCGGCCGTGCGGTGCCUCCGUCACGC
modifications: 2'-OMe at 1-4,8-18,20,22,27,28,30,33,34,36-39, rest deoxy; PS between 35 and 36; 3'-idT
- Kd [3]: 8.7 nM

B11: ARC1366 (mixed)
mixed: GCGUGCAGUGCCUUCGGCCGTGCGGTGCCUCCGUCACGC
modifications: 2'-OMe at 1-4,8-18,20,22,27,28,30,33,34,36-39, rest deoxy; PS between 18 and 19; 3'-idT
- Kd [3]: 15.5 nM

B12: ARC1367 (mixed)
mixed: GCGUGCAGUGCCUUCGGCCGTGCGGTGCCUCCGUCACGC
modifications: 2'-OMe at 1-4,8-18,20,22,27,28,30,33,34,36-39, rest deoxy; PS between 19 and 20; 3'-idT
- Kd [3]: 13.9 nM

B13: ARC1371 (mixed)
mixed: GCGUGCAGUGCCUUCGGCCGTGCGGTGCCUCCGUCACGC
modifications: 2'-OMe at 1-4,8-18,20,22,27,28,30,33,34,36-39, rest deoxy; PS between 23 and 24; 3'-idT
- Kd [3]: 8.4 nM

B14: ARC1373 (mixed)
mixed: GCGUGCAGUGCCUUCGGCCGTGCGGTGCCUCCGUCACGC
modifications: 2'-OMe at 1-4,8-18,20,22,27,28,30,33,34,36-39, rest deoxy; PS between 25 and 26; 3'-idT
- Kd [3]: 7.1 nM

B15: ARC1377 (mixed)
mixed: GCGUGCAGUGCCUUCGGCCGTGCGGTGCCUCCGUCACGC
modifications: 2'-OMe at 1-4,8-18,20,22,27,28,30,33,34,36-39, rest deoxy; PS between 30 and 31; 3'-idT
- Kd [3]: 7.4 nM

B16: ARC1364 (mixed)
mixed: GCGUGCAGUGCCUUCGGCCGTGCGGTGCCUCCGUCACGC
modifications: 2'-OMe at 1-4,8-18,20,22,27,28,30,33,34,36-39, rest deoxy; PS between 6 and 7; 3'-idT
- Kd [3]: 8.2 nM

B17: ARC1379 (mixed)
mixed: GCGUGCAGUGCCUUCGGCCGTGCGGTGCCUCCGUCACGC
modifications: 2'-OMe at 1-4,8-18,20,22,27,28,30,33,34,36-39, rest deoxy; PS between 32 and 33; 3'-idT
- Kd [3]: 10.4 nM

B18: ARC1372 (mixed)
mixed: GCGUGCAGUGCCUUCGGCCGTGCGGTGCCUCCGUCACGC
modifications: 2'-OMe at 1-4,8-18,20,22,27,28,30,33,34,36-39, rest deoxy; PS between 24 and 25; 3'-idT
- Kd [3]: 23.5 nM

B19: ARC1380 (mixed)
mixed: GCGUGCAGUGCCUUCGGCCGTGCGGTGCCUCCGUCACGC
modifications: 2'-OMe at 1-4,8-18,20,22,27,28,30,33,34,36-39, rest deoxy; PS between 34 and 35; 3'-idT
- Kd [3]: 12 nM

B20: ARC1376 (mixed)
mixed: GCGUGCAGUGCCUUCGGCCGTGCGGTGCCUCCGUCACGC
modifications: 2'-OMe at 1-4,8-18,20,22,27,28,30,33,34,36-39, rest deoxy; PS between 29 and 30; 3'-idT
- Kd [3]: 4.4 nM

B21: ARC1363 (mixed)
mixed: GCGUGCAGUGCCUUCGGCCGTGCGGTGCCUCCGUCACGC
modifications: 2'-OMe at 1-4,8-18,20,22,27,28,30,33,34,36-39, rest deoxy; PS between 5 and 6; 3'-idT
- Kd [3]: 12.7 nM

B22: ARC1369 (mixed)
mixed: GCGUGCAGUGCCUUCGGCCGTGCGGTGCCUCCGUCACGC
modifications: 2'-OMe at 1-4,8-18,20,22,27,28,30,33,34,36-39, rest deoxy; PS between 21 and 22; 3'-idT
- Kd [3]: 16.3 nM

B23: AMX202.H10 (ssDNA)
DNA: CTACCTACGATCTGACTAGCGGAATGAGAAGGCTGGTGGATTGCTCAGGTCTGCTGGCTGCTTACTCTCATGTAGTTCC
- binding signal [1]: 1.92 ratio to no protein

B24: AMX202.B8 (ssDNA)
DNA: CTACCTACGATCTGACTAGCGGAATGAGTATGCTGATGGATTGCTCAGGTCTGCTGGCTGCTTACTCTCATGTAGTTCC
- binding signal [1]: 1.66 ratio to no protein

B25: AMX202.D6 (ssDNA)
DNA: CTACCTACGATCTGACTAGCGGAATGAGAAGGCTGATGGATTGCTCAGGTCTGCTGGCTGCTTACTCTCATGTAGTTCC
- binding signal [1]: 1.94 ratio to no protein

B26: AMX202.A3 (ssDNA)
DNA: CTACCTACGATCTGACTAGCGGAATGAGAGCGCTGATGGATTGCTCAGGTCTGCTGGCTGCTTACTCTCATGTAGTTCC
- binding signal [1]: 2.28 ratio to no protein

B27: AMX205.H11 (mixed)
DNA: GGAGCGCACTCAGCCACGGCACGACGGTGATGGATTAGCGCGGTGTCGGTGGTGTCATTTCGACCTCTCTGCTAGC
modifications: 2'-OH purines, deoxy pyrimidines
- Kd [2]: 144 nM

B28: AMX206.A10 (mixed)
DNA: GGAGCGCACTCAGCCACGGCATGACGGTGATGAATTAGCGCGGTGTCGGTGGTGTCATTTCGACCTCTCTGCTAGC
modifications: 2'-OH purines, deoxy pyrimidines
- Kd [2]: 111 nM

B29: AMX206.D7 (mixed)
DNA: GGAGCGCACTCAGCCACGGCACGACGGTGATGAATTAGCGCGGTGTCGGTGGTGTTATTTCGACCTCTCTGCTAGC
modifications: 2'-OH purines, deoxy pyrimidines
- Kd [2]: 187 nM

B30: AMX205.D11 (mixed)
DNA: GGAGCGCACTCAGCCACGGCACGACGGTGATGAATTAGCGCGGTGTCGGTGGTGTCATTTCGACCTCTCTGCTAGC
modifications: 2'-OH purines, deoxy pyrimidines
- Kd [2]: 124 nM

B31: AMX199.F8 (ssDNA)
DNA: CTACCTACGATCTGACTAGCAAGGGGATTGGCTCCGGGTCTGGCGTGCTTGGCACCTCTGGCTTACTCTCATGTAGTTCC
- binding signal [1]: 1.78 ratio to no protein

B32: AMX200.E10 (ssDNA)
DNA: CTACCTACGATCTGACTAGCAAGGGGATTGGCTCCGGGTCTGGCGTGCTCGGCACCTTTGGCTTACTCTCATGTAGTTCC
- binding signal [1]: 1.69 ratio to no protein

B33: AMX199.B6 (ssDNA)
DNA: CTACCTACGATCTGACTAGCAAGGGGATTGGCTCCGGGTCTGGCGTGCTTGGTACCTCCGGCTTACTCTCATGTAGTTCC
- binding signal [1]: 2.01 ratio to no protein

B34: AMX202.F6 (ssDNA)
DNA: CTACCTACGATCTGACTAGCAAGGGGATTGGCTCCGGGTCTGGCGTGCTCGGCACCTTCGGCTTACTCTCATGTAGTTCC
- binding signal [1]: 1.49 ratio to no protein

B35: AMX199.D8 (ssDNA)
DNA: CTACCTACGATCTGACTAGCAAGGGGATTGGCTCCGGGTCTGGCGTGCTTGGCATCTTCGGCTTACTCTCATGTAGTTCC
- binding signal [1]: 1.89 ratio to no protein

B36: AMX206.F9 (mixed)
DNA: GGAGCGCACTCAGCCACGGAGCGTCGGTGATGGATTAGCGCGGCTCCGTGGTACACATTTCGACCTCTCTGCTAGC
modifications: 2'-OH purines, deoxy pyrimidines
- Kd [2]: 139 nM

B37: AMX206.E7 (mixed)
DNA: GGAGCGCACTCAGCCACGGAGCGTCGGTGATGGATTAGCGCGGCTCCGTGGTACACCTTTCGACCTCTCTGCTAGC
modifications: 2'-OH purines, deoxy pyrimidines
- Kd [2]: 151 nM

B38: AMX206.H9 (mixed)
DNA: GGAGCGCACTCAGCCACGGAGCGTCGGTGATGGATTAGCGCGGTTCCGTGGTACACCTTTCGACCTCTCTGCTAGC
modifications: 2'-OH purines, deoxy pyrimidines
- Kd [2]: 109 nM

B39: AMX205.F9 (mixed)
DNA: GGAGCGCACTCAGCCACGGAGCGTCGGTGATGGATTAGCGCGGCTCCGTGGTACGCCTTTCGACCTCTCTGCTAGC
modifications: 2'-OH purines, deoxy pyrimidines
- Kd [2]: 145 nM

B40: AMX200.A11 (ssDNA)
DNA: CTACCTACGATCTGACTAGCTGAGTAGTTAGTAACTTTTTATTATGGTTTGGTGGGTCTGGCTTACTCTCATGTAGTTCC
- binding signal [1]: 1.49 ratio to no protein

B41: AMX200.H8 (ssDNA)
DNA: CTACCTACGATCTGACTAGCTGAGTAGTCAGTAATTTTTTATTATGGTTTGGTGGGCCTGGCTTACTCTCATGTAGTTCC
- binding signal [1]: 1.86 ratio to no protein

B42: AMX205.H8 (mixed)
DNA: GGAGCGCACTCAGCCACAAACGGACGGTGATGGATTAACGCGGGTTTATGGCAAGGTTTCGACCTCTCTGCTAGC
modifications: 2'-OH purines, deoxy pyrimidines
- Kd [2]: 788 nM
